# Reference: patent publication US12460006B2, “Antibodies against integrin alpha 11 beta 1” (Momenta Pharmaceuticals, Inc., priority 2019, dated 2025)
# T1: α11β1 expressed on the surface of CHO-K1 cells (Homo sapiens, UniProt Q9UKX5)
# T1 construct: expressed in transfected cells; host or cells: CHO-K1
# T1 sequence (Q9UKX5 23-1188): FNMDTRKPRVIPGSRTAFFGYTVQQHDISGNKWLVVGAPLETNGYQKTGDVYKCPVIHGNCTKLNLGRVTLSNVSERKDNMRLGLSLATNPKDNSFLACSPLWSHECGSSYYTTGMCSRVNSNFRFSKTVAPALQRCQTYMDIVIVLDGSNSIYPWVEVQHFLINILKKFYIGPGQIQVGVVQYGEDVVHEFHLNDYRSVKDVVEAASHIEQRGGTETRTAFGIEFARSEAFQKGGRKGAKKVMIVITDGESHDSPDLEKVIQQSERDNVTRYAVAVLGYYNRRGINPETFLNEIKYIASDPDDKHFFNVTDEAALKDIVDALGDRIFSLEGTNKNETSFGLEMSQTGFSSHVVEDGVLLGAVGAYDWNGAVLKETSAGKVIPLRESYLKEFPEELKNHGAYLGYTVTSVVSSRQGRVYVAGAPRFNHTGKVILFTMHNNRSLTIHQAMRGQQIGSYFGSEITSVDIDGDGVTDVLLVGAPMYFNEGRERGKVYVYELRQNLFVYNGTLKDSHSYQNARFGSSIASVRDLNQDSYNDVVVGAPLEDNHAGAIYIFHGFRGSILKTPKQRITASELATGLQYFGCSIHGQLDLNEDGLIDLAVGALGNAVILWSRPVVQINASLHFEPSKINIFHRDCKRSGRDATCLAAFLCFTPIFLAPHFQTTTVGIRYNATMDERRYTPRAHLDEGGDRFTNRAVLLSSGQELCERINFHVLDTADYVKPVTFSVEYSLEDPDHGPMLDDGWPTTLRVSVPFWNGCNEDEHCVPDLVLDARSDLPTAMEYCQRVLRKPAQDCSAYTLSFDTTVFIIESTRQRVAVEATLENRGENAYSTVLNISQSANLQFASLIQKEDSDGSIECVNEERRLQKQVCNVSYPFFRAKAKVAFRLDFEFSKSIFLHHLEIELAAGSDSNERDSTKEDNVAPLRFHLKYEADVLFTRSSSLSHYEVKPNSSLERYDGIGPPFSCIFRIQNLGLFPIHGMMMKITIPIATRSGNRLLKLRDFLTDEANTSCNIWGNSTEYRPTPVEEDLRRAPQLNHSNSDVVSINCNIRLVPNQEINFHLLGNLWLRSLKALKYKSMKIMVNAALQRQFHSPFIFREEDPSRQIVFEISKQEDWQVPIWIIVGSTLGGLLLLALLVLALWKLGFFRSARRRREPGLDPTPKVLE
# Tests used:
# [1] = target: T1, α11β1 expressed on the surface of CHO-K1 cells; experiment: FACS antibody binding to CHO-K1 cells expressing human α11; details: binding Yes/No
# Experimental: 200,000 cells (wild-type CHO-K1 cells or CHO-K1 cells expressing human α11) were incubated with each antibody at desired concentrations in FACS buffer for 30 min at 4° C. Then, the cells were washed with FACS buffer and incubated with secondary antibody at 1:100 dilution for 30 minutes at 4° C. Cells were then washed and fixed with 1% PFA in PBS for 20 minutes at room temperature; washed again and read on a cytometer in FACS buffer.
# Since integrins are large, transmembrane receptors that exist in different conformational shapes, experiments were performed to confirm that the novel antibodies also bound cell-expressed α11β1. A CHO-K1 cell line that endogenously expressed high levels of the β1 subunit was engineered to stably express human α11 (CHO-K1 hu α11).
# Binding EC50 was estimated using data from Fluorescence-activated cell sorting (FACS) performed with CHO-K1 hu α11β1 cells.
# α1β1, α2β1 and/or α10β1 = experiment: Counter-screen for cross-reactivity to other collagen receptors; assay type: binding, human; details: cross-reactivity to α1β1, α2β1, α10β1
# Experimental: Wistar rats were immunized with recombinant human α11β1 protein. An enzyme-linked immunosorbent assay (ELISA) was used to test an immune response against target human and mouse proteins. Subsequently, cell fusion (by electro fusion) was performed with animals that produced a good immune response. All fused cells were plated in a 96-well plate and supernatants were screened by ELISA against soluble human and mouse α11β1. Positive clones were counter-screened against human α1β1, α2β1 and α10β1. […] Purified antibodies were then generated from the selected clones and heavy chain and light chain variable domain sequences were obtained from each purified antibody.
# 10 mice from 5 different strains were immunized with an appropriate mixture of human α11β1, mouse α11β1 and tolerance breaking protein. Plasma titers were evaluated by ELISA against a mixture of human and mouse α11β1. Popliteal, inguinal, and iliac lymph nodes were collected. ELISA-positive anti-human/mouse α11β1 hybridomas were expanded and subjected to a secondary screen against human and mouse α11β1, control HIS protein, and a counter-screen was performed against human […], α2β1 and α10β1. Supernatant IgG concentration was sufficient for functional screening. Selected hybridomas satisfying all the criteria were cloned and clonal hybridomas were confirmed by ELISA against human and mouse α11β1 and subsequently scaled-up and IgGs were purified. Heavy and light chain variable regions of selected hybridomas were then sequenced.
# α11β1 belongs to a family of collagen receptors and has a relatively high homology to them. Therefore, the novel antibodies of this invention were counter-screened against α1β1, α2β1 and/or α10β1. Table 2 includes results of cross-reactivity to the other receptors.
# mouse α11β1 = mouse α11β1 (Mus musculus, UniProt P61622); experiment: ELISA binding to recombinant mouse α11β1; details: binding Yes/No
# Experimental: 0.25 μg/mL of target antigen (recombinant human or mouse α11β1) was plated in a 96-well plate over night at 4° C. Plates were washed (PBS with 0.1% Tween-20), blocked (PBS with 2% BSA and 0.05% Tween-20) for 1 hour at room temperature and incubated with a range of antibody concentrations for 1 hour at room temperature. Subsequently, plates were washed and incubated with biotinylated anti-rabbit/mouse/human IgG in a 1:1000 dilution buffer and incubated for 1 hour at room temperature. After washing the plates, Streptavidin HRP was added at 1:200 in dilution buffer and incubated for 1 hour at room temperature. Ultra TMB ELISA substrate solution was added and the plates incubated for 5 minutes on a plate shaker. The reaction was stopped by adding stop solution to each well and plates were read at 450 nm.
# Chain of mouse α11β1 (P61622 23-1141 limits assumed): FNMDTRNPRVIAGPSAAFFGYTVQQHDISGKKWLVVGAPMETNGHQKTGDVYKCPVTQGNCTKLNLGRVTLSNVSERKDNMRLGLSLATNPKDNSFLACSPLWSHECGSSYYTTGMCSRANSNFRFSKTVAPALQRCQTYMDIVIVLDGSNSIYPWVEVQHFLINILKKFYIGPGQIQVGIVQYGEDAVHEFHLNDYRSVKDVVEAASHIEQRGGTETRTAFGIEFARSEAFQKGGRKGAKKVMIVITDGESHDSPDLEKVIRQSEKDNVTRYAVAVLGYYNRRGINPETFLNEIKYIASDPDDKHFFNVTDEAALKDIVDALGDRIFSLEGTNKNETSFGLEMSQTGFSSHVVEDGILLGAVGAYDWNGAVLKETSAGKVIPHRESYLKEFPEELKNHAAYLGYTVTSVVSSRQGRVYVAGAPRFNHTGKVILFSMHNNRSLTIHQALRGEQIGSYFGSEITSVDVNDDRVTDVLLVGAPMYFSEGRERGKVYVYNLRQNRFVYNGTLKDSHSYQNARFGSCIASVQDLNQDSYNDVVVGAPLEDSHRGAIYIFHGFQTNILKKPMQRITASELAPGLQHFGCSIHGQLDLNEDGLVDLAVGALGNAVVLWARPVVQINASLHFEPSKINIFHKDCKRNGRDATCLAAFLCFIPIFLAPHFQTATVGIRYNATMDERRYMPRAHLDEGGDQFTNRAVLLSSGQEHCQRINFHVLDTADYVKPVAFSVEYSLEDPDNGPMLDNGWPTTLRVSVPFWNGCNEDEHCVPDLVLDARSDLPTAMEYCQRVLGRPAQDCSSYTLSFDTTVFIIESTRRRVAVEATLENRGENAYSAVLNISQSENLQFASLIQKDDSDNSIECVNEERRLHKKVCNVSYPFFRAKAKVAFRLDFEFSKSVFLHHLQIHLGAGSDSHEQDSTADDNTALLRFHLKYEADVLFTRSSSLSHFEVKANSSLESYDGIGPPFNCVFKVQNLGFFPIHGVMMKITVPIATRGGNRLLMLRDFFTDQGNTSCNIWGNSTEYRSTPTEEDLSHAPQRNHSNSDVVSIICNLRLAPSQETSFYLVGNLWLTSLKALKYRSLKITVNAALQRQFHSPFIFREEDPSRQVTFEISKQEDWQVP
# Chain of mouse α11β1 (P09055 21-728 partner limits assumed): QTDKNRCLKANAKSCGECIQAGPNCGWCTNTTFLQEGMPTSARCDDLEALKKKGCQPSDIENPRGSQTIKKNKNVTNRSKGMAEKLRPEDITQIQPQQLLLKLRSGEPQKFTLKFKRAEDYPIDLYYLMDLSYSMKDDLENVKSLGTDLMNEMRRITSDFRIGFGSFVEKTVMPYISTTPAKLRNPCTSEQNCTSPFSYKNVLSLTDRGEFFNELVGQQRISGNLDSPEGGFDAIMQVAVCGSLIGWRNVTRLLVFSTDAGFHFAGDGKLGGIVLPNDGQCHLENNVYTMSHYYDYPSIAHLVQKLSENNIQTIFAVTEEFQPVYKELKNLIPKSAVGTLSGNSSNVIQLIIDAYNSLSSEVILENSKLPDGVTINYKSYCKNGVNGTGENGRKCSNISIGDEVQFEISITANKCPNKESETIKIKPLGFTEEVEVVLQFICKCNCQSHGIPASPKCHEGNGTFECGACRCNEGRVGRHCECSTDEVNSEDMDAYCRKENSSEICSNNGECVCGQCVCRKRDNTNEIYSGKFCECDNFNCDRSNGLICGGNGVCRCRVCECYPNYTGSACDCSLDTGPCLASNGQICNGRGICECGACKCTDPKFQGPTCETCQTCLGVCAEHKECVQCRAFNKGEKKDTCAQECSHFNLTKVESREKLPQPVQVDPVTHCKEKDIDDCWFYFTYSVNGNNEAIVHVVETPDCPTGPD
CHO-K1 FACS [1],"Off Target (α1β1, α2β1 and/or α10β1)",Murine α11β1 ELISA (mouse α11β1),Molecule
Yes,No,Yes/Low,"6-A12: mouse anti-α11β1 mAb; VH SEQ ID NO: 127, VL SEQ ID NO: 128 (antibody, V domains shown) VH: QVTLKESGPGILQPSQTLSLTCSFSGFSLRTFAMGVGWIRQPSGKGLEWLAHIWWDDDKYYNPALKSRLTISKDTSKNQVFLKIANVDTADTATYYCARMPLTFYFDYWGQGTTLTVSS VL: DVLMTQTPLSLPVSLGDQASISCRSSQSIVHSNGNTYLEWYLQKPGQSPKLLIYKVSTRFSGVPDRFSGSGSGTDFTLKISRVEAEDLGVYYCFQGSHVPFTFGGGTKLEIK"
Yes,No,No,"9-B11: mouse anti-α11β1 mAb; VH SEQ ID NO: 115, VL SEQ ID NO: 116 (antibody, V domains shown) VH: QVQLQQPGAELVRPGTSVKLSCKASGYTFTSYWMHWVQQRPGQGLEWIGVIDPSDSYTNYNQKFKGKATLTVDTSSSSAYMQLSSLTSEDSAVYYCARDDVAMDYWGQGTSVTVSS VL: DIVVTQSPASLAVSLGQRATISCRASESVDSYGNSFIHWYQQKPGQPPKLLIYRASNLKSGIPARFSGSGSRTDFTLTINPVEADDVATYYCQQSNEDPYTFGGGTKLEIK"
Yes,No,No,"7D8B10: rat anti-α11β1 mAb; VH SEQ ID NO: 153, VL SEQ ID NO: 154 (antibody, V domains shown) VH: MDLRLTYVFIVAILKGVLCEVKLEESGGGLVQPGMSVKLSCATSGFIFSDYWMEWVRQAPGKGLEWVAEIRNKANNYATYYGKSMKGRFTISRDDSKSIVYLQVNSIRSEDTAIYYCAPNFDYWGQGVMVTVSS VL: MSPVQSLFLLLLWILGTHGDVVLTQTPPTLSATIGQSVSISCRSSQSLLHSTGNTYLNWLLQRPGQPPQLLIYLVSRLESGVPNRFSASGSGTDFTLKISGIEAEDLGVYYCVQSSHTPYTFGTGTKLELK"

# The next lines start with the molecule.
Molecule,CHO-K1 FACS [1],"Off Target (α1β1, α2β1 and/or α10β1)",Murine α11β1 ELISA (mouse α11β1)
"10-F23: mouse anti-α11β1 mAb; VH SEQ ID NO: 125, VL SEQ ID NO: 126 (antibody, V domains shown) VH: QVTLKESGPGILQPSQTLSLTCSFSGFSLSTFAMGVGWIRQPSGKGLEWLAHIWWDDDKYYNPALKSRLTISKDTSKNHVFLKIANVDTADTATYYCARMPLTFYFDYWGQGTTLTVSS VL: DVLLTQTPLSLPVSLGDQASISCRSSQSIVHSNGHTYLEWYLQKPGQSPKLLIYKVSNRFSGVPDRFSGSGSGTDFTLKISRVEAEDLGVYYCFQGSHVPFTFGGGTKLEIK",Yes,No,Yes/Low
"6-B21: mouse anti-α11β1 mAb; VH SEQ ID NO: 123, VL SEQ ID NO: 124 (antibody, V domains shown) VH: EVQLQQSGPELVKPGASVKISCKASGYTFTDYYMNWVKQSHGKSLEWIGDINPHNGGTSFIQKFKGKATLTVDKSSSTAYMELRSLTSEDSAVYYCAPLGRKEGFAYWGQGTLVTVSA VL: DTVLTQSPASLVVSLGQRATISCRASKSVSTSGYSYMHWYQQKPGQPPKLLIYLASNLESGVPARFSGSGSGTAFTLNIHPVEEEDAATYYCQHSRELPYTFGGGTKLEIK",No,No,Yes/Low
"6-M8: mouse anti-α11β1 mAb; VH SEQ ID NO: 129, VL SEQ ID NO: 130 (antibody, V domains shown) VH: QVQLQQPGAELVMPGASVKLSCKASGYTFTNYWMHWVKQRPGQGLEWIGEIDPSDSYTNYNQKFKGKATLTVDKSSSTAYMQLSSLTSEDSAVYYCTRQGSTYAWGQGTSVTVSS VL: DIVMTQAAFSNPVTLGTSASISCRSSKSLLHSNGITYLYWYLQKPGQSPQLLIYQMSNLASGVPDRFSSSGSGTDFTLRISRVEAEDVGVYYCAQNLELPPTFGGGTKLEIK",No,No,No
"18E10F10: rat anti-α11β1 mAb; VH SEQ ID NO: 155, VL SEQ ID NO: 156 (antibody, V domains shown) VH: MDIRLSLVFLVLFMKGVQCEVQLVESGGGLVQPGRSLKLSCAASRFTFSDYNMAWVRQAPKKGLEWVATIYHDDSGSYYRDSVKGRFTISRNNAKSTLYLQMDSLRSEDMATYYCARHNNGFDYWGQGVMVTVAS VL: MKWPVRLLVLFFWIPASGGDVVMTQTPVSLPVRLGGQASISCRSSQSLVHSNGNTYLHWYLQKPGQSPQLLINRVSNRFSGVPDRFSGSGSGTDFTLKINRVEPEDLGDYYCLQSTHFPLTFGSGTKLETK",Yes,No,No
"7-H14: mouse anti-α11β1 mAb; VH SEQ ID NO: 121, VL SEQ ID NO: 122 (antibody, V domains shown) VH: QVQLQQPGAELVRPGASVKLSCKPSGYTFTSYWMNWVKQRPGQGLEWIGMIDPSDSETHYNQMFKDKATLTVDKSSNTAYMQLSSLTSEDSAVYYCAQIYYAYDKAYWGQGTLVTVSA VL: DIVMSQSPSSLAVSVGEKVTMSCKSSQSLLYSSHQKNYLAWYQQKPGQSPKLLIYWASTRESGVPDRFTGSGSGTDFSLTISSVKAEDLAVYYCQEYYSWTFGGGTKLEIK",Yes,No,Yes/Low
"6-O12: mouse anti-α11β1 mAb; VH SEQ ID NO: 117, VL SEQ ID NO: 118 (antibody, V domains shown) VH: EVKLEESGGGLVQPGGSMKLSCAASGFTFSDAWMDWVRQSPEAGLEWVAEIRNKAHNPATYYAESVKGRFTISRDDSKSSVYLQMNSLRAEDTGIYYCTLVAPDAMDYWGQGTSVTVSS VL: DIVMSLSPSSLAVSVGEKVTMSCKSSQSLLYSRNQKNYLAWYQQKPGQSPKLLIYWASTRASGVPDRFTGSGSGTDFTLTISSVKAEDLAVYYCQQYYSYPYTFGGGTKLEIK",No,No,No
